# Assay: label from the status in PepcDB records
row,Sequence,protein production
1,MPLSTSDNIAAVIVTHKRVELLRASLEVVAAQTHPVKWIIVVDNGCEDAVRDLLHSVAGDRGIYLPSHTNLGGAGGFAYGFLTALALGADAIWCADDDGRPEGPQVLATLIDAAVTHQLDEVSPVVCNMDDPNRLAFPLRRGLEWRRYRSELIDPNNPSDTLLPGIASLFNGALISAAAMERIGVPDLRLFIRGDEVEYHRRLVRSGLNFGTCLTTAYLHPDGSDEFKPILGGRMHTQYPASDAKRYFTYRNRGYLMNQPGMRRLLPQEYARFAWFFLIQRRDPRGFLEWFKLHQLGRSEKFERPLEHHHHHH,failed
2,MPLSYSSPSLSEERSDDPSKYDGDFGVPQICFCGKQLELVERLIGDQKKTFLKCPMSGQDDNYHVDKGWDLVVHEQCFCIDKRFGEHRELIQNAFKFGGDSNRLQINQIRAEIEDLKDRLDKKDAEITRLMDALGKK,failed
3,MPLTMLSEGKGCRIKEVRAGLELKRRLTEMGFTPSSSVRLIGCERGNLLVNVNGARYALGKGMAMKIMVEPDPCEGVELGLEHHHHHH,failed
4,MPMSSPMMSDTDREDLDAILRTVLVSDKGYVETLSRATGLNGKALTDKAAFTLSRLSAVGGYDYENEALEVAGRYLAEARFTEAEAIYRQVLVSFPEKHGFNHPGYATRLNNLAEVLRATARYDEAESLYRQALEIDREALGLEHPDYGIDLLNLAGLLHDRGRYEAAEPLYREAMTIIGKVVGEEHYRYATAQNNLAGLLQDMLRFEEAEALCRQALEITSKTLGESHSVYATRLNNLAELLGTTERYGEAEPLYRQALEITQKTLGEEHPDFAIRLNNLAVLLKATGRYEEAEPLYRQALEITHRTLGEAHPDYATRLNNFAGLLDSTERYDEAEPLYRQALEICEKALGVEHPSTQTVRANLELFLSEKPD,failed
5,MPNFKSKKIKEINLPYSKDDVEFLWLAKNDNVSLIYTKVQEESFFLQIKKAQNGFVIKGDKHTKPSKIGYLQKALKIFKEGFCEDIINEAFGLKNNALIEKTPFIVDNFDELLSRLQGKIYIEIGFGSGRHLLYQAKENPNVLILGVEIYNPALTQVAKLAKAQNVNNILLIQSDARLLLSVLKSKSVEKIFLHFPVPWDKKPHRRVIGKDFCKECARVLVQNGRFELRTDSFEYFNFTLEQFLTFPAPKFSLRKNENLEISSKYEDRWKKQEKNIYDLWVWNFNQECKNYELNEFNLSSVEFSKEDLKKIEQNFKNITIKKDDFFLHFESIYKQDENLLLKVAFGAFNKPEHCYLHLDKTIDFAFKEPFKIQENIKAINELKEILKVQFKI,failed
6,MPNNDSFYKKVLDNLYDGIYFVDEQRRITYWNKGAQMLTGYGEKEVIGRNCHDIFLHLDSNGNGICSDACPIEKTITDGRKRDEESFLHHKDGHLVPVCLRVAPIQDTDGQMVVAVEVTGDHSPRHALRQQLENLQRLALCDPLTTIANRRYVEMSLNSRLEEMRRYGWHFGILFLDVDHFKQINDTHGHDTGDRVLKMVAKTLVNSARSFDVVGRWGGEEFIAVLANISRRQLPRIADRFRHLVEQSSFRLDDRLLRVTVSVGATMSHLDDTVESLVQRADTLMYRSKQAGRNCVSIGFGEEMPETSATPSASP,failed
7,MPNQVLFCITKMRYEEKRIYHYLEESGLSIKIMLDSSNLDEVVAHNSDYCLCIVRVMSQHRAFRIAEYMEALGIPTLNSSRAIQICADKAIQALILANRDVIKQPHFSILRNYEDLSNFNGKMVVKPVSSSWGRGISLIENEDALTTWKISHQELDIQNQNLPYLIQEFIDKPNYDVRIVIINTKPVVAFKRVSANNWKTNTHLGATVVPIVIDDSINKIVTEIIKVVGPGIYGLDLMKNRQNEWIFCEINQNPEFAHSWKIHHVDVAEKIAQYVSSKVKVGQKNASTHLEHHHHHH,failed
8,MPNTTAKKDYTKYSEKQLFNLIHQLERKIKKMQNDRISFKEKMAKELEKRDQNFKDKIDALNELLQKISQAFDDKRDCCLGHEIPNIETQQAMRDALNGINLTQIDSLDDFTNELKRENSKGFENVCFSV,failed
9,MPPMPVPIRILSVLLLVAMSASATAAPKKAPPASPPSSAGASSLEPVLAGEFALQAGQLDDAARAYLDAAKAEAGDAGLAERAARISMLANDDPRAIEALALWRARAPSSMSMRSTEASLALRRNDLRTARRDLLGLLKEPDPRGWRFALIALANGGREPEASADVLEDLVKAGAIPNQIEAWQEFGRLALRMERPALAKRIVDEVVRRFPEEPRVALLHATQLQQEGKNDEALALLKNIEPQAVKDSELRGALAFAYDAMGQTEAAARVLSTGPQDTQTYGLRASMLAKEKDRSSLEALYAELKSNATKPDPDRRLLLGKIAEFLKRYDEAVEWYRGVPGGPQLSEARLRAASALYELGRKPEALAEARALQGDASADDDARRDAYVLEAELHQRADDAPGELDAFERGLAAYPDDSALLYARGLAWERRDDVPRAEADLRKILVTEPENVAALNALGYTLADRTTRYKEALALIDRARTADPDNPAIVDSYGWVLYRMGRTKEALVQLRRAWALVKDPEIAAHVGEVLWVSGKQDEARRYFDEARRLDPDNRALQRAVEKFGL,failed
10,MPPPAAAAGLAGRPGRGAGSRLRPAVAAAGRRAHMIRCRHGGPRLQDIRNTVGNVPLEWYDDFPHVGYDLDGRRIYKPLRTRDELDQFLDKMDDPDYWRTVQDPMTGRDLRLTDEQVALVRRLQSGQFGDVGFNPYEPAVDFFSGDVMIHPVTNRPADKRSFIPSLVEKEKVSRMVHAIKMGWIQPRRPRDPTPSFYDLWAQEDPNAVLGRHKMHVPAPKLALPGHAESYNPPPEYLLSEEERLAWEQQEPGERKLSFLPRKFPSLRAVPAYGRFIQERFERCLDLYLCPRQRKMRVNVDPEDLIPKLPRPRDLQPFPTCQALVYRGHSDLVRCLSVSPGGQWLVSGSDDGSLRLWEVATARCVRTVPVGGVVKSVAWNPSPAVCLVAAAVEDSVLLLNPALGDRLVAGSTDQLLSAFVPPEEPPLQPARWLEASEEERQVGLRLRICHGKPVTQVTWHGRGDYLAVVLATQGHTQVLIHQLSRRRSQSPFRRSHGQVQRVAFHPARPFLLVASQRSVRLYHLLRQELTKKLMPNCKWVSSLAVHPAGDNVICGSYDSKLVWFDLDLSTKPYRMLRHHKKALRAVAFHPRYPLFASGSDDGSVIVCHGMVYNDLLQNPLLVPVKVLKGHVLTRDLGVLDVIFHPTQPWVFSSGADGTVRLFT,failed
11,MPPPTASTPDDSADPGPDFADVPPTDLVKVGFIFRPHGLDGELKIDPSATDDPARFEVLPTVFVGPHPRRVVRHDIASVRYQKTKRGITVILGLDGIVDRDDAEAVAKMDVFATEAALGLEDDELFADDLVGWTVVTEEGAVQGTVADFMEMPAQDLFVVRTPEDTEAMIPAIDDFIIEIDEEAERIVVRPIDGLMDALEHHHHHH,failed
12,MPPVPGVPFRNVDNDSPTSVELEDWVDAQHPTDEEEEEASSASSTLYLVFSPSSFSTSSSLILGGPEEEEVPSGVIPNLTESIPSSPPQGPPQGPSQSPLSSCCSSFSWSSFSEESSSQKGEDTGTCQGLPDSESSFTYTLDEKVAELVEFLLLKYEAEEPVTEAEMLMIVIKYKDYFPVILKRAREFMELLFGLALIEVGPDHFCVFANTVGLTDEGSDDEGMPENSLLIIILSVIFIKGNCASEEVIWEVLNAVGVYAGREHFVYGEPRELLTKVWVQGHYLEYREVPHSSPPYYEFLWGPRAHSESIKKKVLEFLAKLNNTVPSSFPSWYKDALKDVEERVQATIDTADDATVMASESLSVMSSNVSFSE,failed
13,MPQLQKEWFDTWFDTPYYHILYSNRDESEAEVFLTNLMNHMAVPKGASILDLPCGKGRHTLFLAEKGYTLTGADLSVASIALAQSHAPAGVTFLVHDLRKPAWNESFDYVLNLFTSFGYFETEAEDRAAFTTLSKALKSGGSLVIDFMNVTRAVNLLKEEETKVMEGIEFQLKRYVKDGYIHKEIRFEADNTPFFFTERVKALTLDDFKEFFTFAGLTLVDTFGSYQLDAYDAAESDRLIMIAKKLEHHHHHH,not failed
14,MPQTPPFPVMYGSTNGYNKNLYKAKEEDYEGLYYHDNNLISGSLEALIEHLVPTVAYYPDRTYIFTFLLSSRLFLHPYELMSKVCHLCVDQQRLSDPQADKARVRKIAPKILQLLTEWTETFPYDFRDERMMKSLKELTHRLSTGEDLYRKAVQQMTQTLIRKLTTLSQYEEALAKINSSVTDRLTVLKTKPQSIQRDILTICNDPFTLAQQLTHIELERLSYIGPEEFVQAFVQKDPLDNDKNCFSDHKKASNLEAYVEWFNRLSYLVATEICMPVKKKHRARVIEFFIDVARECFNIGNFNSLMAIITGMNMSPVSRLKKTWAKVKTAKFDILEHQMDPSSNFYNYRTALRGATQRSITAHSSREKIVIPFFSLLIKDIYFLNEGCANRLPNGHVNFEKFWGLAKQVTEFMTWKKVECPFDRDRKILQYLLTAPVFSEDALYLASYESEGPENNMEKDRWKSLRSSLLNRT,not failed
15,MPRCIIYVDFPCWHPVRQRPLRVRGRFRTFVRSHAFPSPPVSDPSPSSSDASPPDALVIIPTYNEADNIGPVIDQVLEQSPPLSVLVVDDNSTDGTADLVRSKKTDALDRVHLIERSGKLGLGTAYLRGFRYALAQDYTYICEMDADRSHDPNDLPRLIAPVREGEVALAIGSRYVEGVRVINWPLSRLVLSYGAGVYTRAITRLPLLDVTAGFKCFHRRVLETLPLDRVNSDGYAFQVEMHYRTWRAGFPFTEVPVVFTERTEGESKMRREIVVEAALKVWELRLQDLLGRL,failed
16,MPRLTTRALTRCLLATLALLCIALPALAAAPITPLRVMSFNVRVPVDTDGDKRWQARRGAMVSVIKQTHPDVFGTQELVSEQAGYLAAQLPNYRWFGQGRRGDDSDEHMGVFYDTRTLNVVESGNFWLSDTPEVAGSITWGNVLPRMVTWALFERRSDKRRFYLFNTHFPYRDEDEPAREHSARLILSRIAQLPADIPVVLTGDFNSDPDKITYPTLTAVLGDARARAPKRSGPENTFQDFSTHPTRRIDWILFRGLTPTQFTTLDDRPGGVLPSDHYPVLAEFAWPR,failed
17,MPRNNKTSLIQKIASQAYATFTNCSSSAIEDNNKVFLEHQADLVALLSDIRAADLKIAPPTKVSTSSPSVPPVTYMHICETDVFSMGVFLLKSGASIPLHDHPGMHGMLKVLYGKVSIRCYDKLDKAESDTERHFDPPLLAFQGDDVRRAALRSSGQFSELSGPCVLSPFKDNLHEIDAVDGAAAFLDILAPPYDPDDGRDCHYYRVLQTAGKKSEQSGDDEAWLLEIPQPDDFWCGGEPYPGPEVTI,not failed
18,MPRPLVDEVRFLRSWIEKPLHMGAVMPSGKLLARTMARYVDIQSDGPVIELGPGTGAITNALVEHGVDQKRLVLLEFDPGFCALLRERFPLAKVVQGDAYRLRDSLWDALEIPATAVVSGLPLVTKPMLTRMKLIRDAFTLLEPGAPFVQFTYSVAPPIPKSLPGVSTEGSERIWMNVPPARVWVYRKRLEHHHHHH,not failed
19,MPSEVTEEFIIIIAVVLIGLVLFGFVTSYFIPHEIFSLAQQQASSISSSTTVSVGPLIFNSGSASTVIEAYNPAISGNITLIVFPEPSYLQQDVGLVTPQSPPQFSVYLSNEKLAKSFTISIPIYDVNGRIIYDSQITAYTVPFNTPVTITVNGVGGSNYILIVWVLYNSNGYWFRIGYTFTGVPST,failed
20,MPSFLEISPDKLNRLIGTPGAPRIIDVRTDEDFALDPRLVPGSIRRDHAEVASWADSIDADAVVVVCHRGAKLSHGVAAYLRHAGIEAESLAGGFEAWAAAGPAVPEAKLEHHHHHH,failed

# From a protein production outcome set (Wang et al. 2014)
